Experimental data reported in doi:10.1101/041756.
Like-named read-outs stand apart in the source and are kept apart here.

Columns and labels:
[1] = molecular target: microtubules (human (endogenous in HeLa)) (UniProt P68363)
[2] = molecular target: microtubules (human (endogenous in HeLa)) (UniProt P68363); remark: listed apart in the source

Chain of UniProt P68363 (P68363 whole entry): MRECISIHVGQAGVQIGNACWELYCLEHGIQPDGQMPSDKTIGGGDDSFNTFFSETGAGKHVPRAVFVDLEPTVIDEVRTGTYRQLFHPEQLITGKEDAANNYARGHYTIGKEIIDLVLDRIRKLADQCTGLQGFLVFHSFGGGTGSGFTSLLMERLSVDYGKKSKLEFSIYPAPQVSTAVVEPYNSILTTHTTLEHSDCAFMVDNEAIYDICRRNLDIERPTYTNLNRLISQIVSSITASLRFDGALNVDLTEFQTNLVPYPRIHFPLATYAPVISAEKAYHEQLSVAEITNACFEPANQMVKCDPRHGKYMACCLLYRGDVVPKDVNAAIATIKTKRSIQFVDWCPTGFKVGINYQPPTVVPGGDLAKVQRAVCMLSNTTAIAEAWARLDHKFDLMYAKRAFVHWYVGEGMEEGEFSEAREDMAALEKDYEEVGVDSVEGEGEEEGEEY

Row | Substance | FRAP in living reporter cells: mobile fraction [1] [%] | other results
1 | Conformational-Sensitive Tau sensor (ECFP-Tau-EYFP, full length Tau-D, 0N4R) (from UniProt P10636-6 1-383) |  | FRAP in living reporter cells: mobile fraction [2]: 73%; FRAP in living reporter cells: τ1 of the MTs-bound phase [2]: 30 s
2 | P301L-CST | 84 | FRAP in living reporter cells: diffusive fraction [1]: 38%
3 | S422E-CST | 86 | 

The next lines start with results.

Row | FRAP in living reporter cells: mobile fraction [1] [%] | Substance | other results
4 | 57 | AT8mut-CST (S199A/S202A/T205A) | FRAP in living reporter cells: τ2 [1]: 46.8
5 | 85 | P301S-CST | 
